{"source": "patent US11541101B1", "about": "“LEMD3 antagonizes TGF-beta-driven Smad2/3 transcription in a stiffness-dependent fashion in both the nucleus and cytosol” (University of Virginia Patent Foundation, priority 2018, dated 2023)", "type_in_all_cases": "cell-based, human", "key": {"Smad3 phosphorylation": {"test_system": "Smad3 phosphorylation", "assay": "phospho-Smad3 to total Smad3 ratio by western blot", "conditions": "electroporation of TGFβ dosed HFFs on tissue culture plastic"}, "Smad2/3": {"test_system": "Smad2/3", "assay": "V5-Smad2/3 PLA with recombinant LEMD3 / CTF", "method": "In vitro PLA: Protein-protein PLA was per-formed with antibody pairs listed in Table 4 as described in (42) with the following modifications: cells were plated on FN-coated glass or hydrogels (Matrigen, Brea, Calif.). All primary antibody in-cubations were performed for 16-24 hours at 4 C and cells were counter-stained with 1:40 phalloidin-488 or phalloidin-546 in 1×PBS for 30 minutes at room temperature and/or further processed for IF imaging using the procedure recommended in Sigma's PLA Resource Center. For all recombinant LEMD3 and C-terminal fragment experiments, HFFs were electroporated as above and allowed to culture for 24 hours on 10 μg/mL fibronectin coated glass or hydrogels before fixation. For LEMD3-phospho-Smad2/3, LEMD3-Smad2/3+TGFβ and for Smad2/3-Smad4 PLA assays: cells were treated 90 minutes before fixation with 50 μg/mL for LEMD3- and CTF-Smad2/3 assays, 100 μg/mL TGFβ for LEMD3-phospho-Smad2/3 experiments and 500 μg/mL TGFβ for Smad2/3-Smad4 experiments. For FLAG post-staining of PLA processed tissues, cells were blocked with unlabelled AffiniPure donkey anti-rabbit antibodies (Jackson ImmunoResearch, West Grove, Pa.) at a 1:10 dilution in 1×PBS-T at room temperature for 1 hour before further IF processing with 1:1000 rabbit anti-FLAG (#F7425, Sigma-Aldrich, Darmstadt, Germany) for 1 hour in PBS-T at room temperature. Following three washes with PBS-T for 5 minutes, each sample was stained with 1:500 goat anti-rabbit 546 in PBS-T for 1 hour at room temperature, washed again and then counter-stained as above. For V5 post-staining of PLA processed samples, cells were incubated with 1:200 647 labelled anti-V5 antibody (R&D Systems, Minneapolis, Minn.) diluted in PBS-T at room tem-perature for 1 hour before washing three times in PBS-T for 5 minutes each and then counter-stained as above. Imaging and analysis were performed as described for high-resolution ex vivo PLA signals except that no tissue autofluorescence signal was measured or needed to be subtracted and, when appro-priate, other IF signal (e.g. FLAG) were measured in parallel. For cells on Matrigen HTS plates (FIGS. 2c & 2d), the confluence of cells prevented identifying individual cell boundaries. Instead the PLA signal was quantified as the PLA volume divided by the nuclear intensity for each image. Each data point represents at least 3 unique surfaces with at least 12 cells measured per surface. For Smad2/3-Smad4 experiments, only two independent hydrogels were analyzed for the “CTF 500 μg/mL” and “Neon 500 μg/mL” groups due to loss of hydrogels during processing. Each bar in FIG. 5D represents the mean with standard error of the mean for all the cells analyzed from that condition."}, "Smad2/3-Smad4 complexes": {"test_system": "Smad2/3-Smad4 complexes", "assay": "Smad2/3-Smad4 PLA", "conditions": "over-expression, 500 μg/mL TGFβ, 1 kPa hydrogels, p=0.0081", "method": "In vitro PLA: Protein-protein PLA was per-formed with antibody pairs listed in Table 4 as described in (42) with the following modifications: cells were plated on FN-coated glass or hydrogels (Matrigen, Brea, Calif.). All primary antibody in-cubations were performed for 16-24 hours at 4 C and cells were counter-stained with 1:40 phalloidin-488 or phalloidin-546 in 1×PBS for 30 minutes at room temperature and/or further processed for IF imaging using the procedure recommended in Sigma's PLA Resource Center. […] Imaging and analysis were performed as described for high-resolution ex vivo PLA signals except that no tissue autofluorescence signal was measured or needed to be subtracted and, when appro-priate, other IF signal (e.g. FLAG) were measured in parallel. […] Instead the PLA signal was quantified as the PLA volume divided by the nuclear intensity for each image. Each data point represents at least 3 unique surfaces with at least 12 cells measured per surface. For Smad2/3-Smad4 experiments, only two independent hydrogels were analyzed for the “CTF 500 μg/mL” and “Neon 500 μg/mL” groups due to loss of hydrogels during processing. Each bar in FIG. 5D represents the mean with standard error of the mean for all the cells analyzed from that condition."}, "PPM1α": {"test_system": "PPM1α", "assay": "PPM1α PLA", "conditions": "glass", "method": "In vitro PLA: Protein-protein PLA was per-formed with antibody pairs listed in Table 4 as described in (42) with the following modifications: cells were plated on FN-coated glass or hydrogels (Matrigen, Brea, Calif.). All primary antibody in-cubations were performed for 16-24 hours at 4 C and cells were counter-stained with 1:40 phalloidin-488 or phalloidin-546 in 1×PBS for 30 minutes at room temperature and/or further processed for IF imaging using the procedure recommended in Sigma's PLA Resource Center. For all recombinant LEMD3 and C-terminal fragment experiments, HFFs were electroporated as above and allowed to culture for 24 hours on 10 μg/mL fibronectin coated glass or hydrogels before fixation. For LEMD3-phospho-Smad2/3, LEMD3-Smad2/3+TGFβ and for Smad2/3-Smad4 PLA assays: cells were treated 90 minutes before fixation with 50 μg/mL for LEMD3- and CTF-Smad2/3 assays, 100 μg/mL TGFβ for LEMD3-phospho-Smad2/3 experiments and 500 μg/mL TGFβ for Smad2/3-Smad4 experiments. […] Imaging and analysis were performed as described for high-resolution ex vivo PLA signals except that no tissue autofluorescence signal was measured or needed to be subtracted and, when appro-priate, other IF signal (e.g. FLAG) were measured in parallel. […] Instead the PLA signal was quantified as the PLA volume divided by the nuclear intensity for each image. Each data point represents at least 3 unique surfaces with at least 12 cells measured per surface. For Smad2/3-Smad4 experiments, only two independent hydrogels were analyzed for the “CTF 500 μg/mL” and “Neon 500 μg/mL” groups due to loss of hydrogels during processing. Each bar in FIG. 5D represents the mean with standard error of the mean for all the cells analyzed from that condition."}}}
{"molecule": "CTF: consensus C-terminal fragment of LEMD3 (SEQ ID NO: 25), expressed from pFLAG-LEMD3p.Δ21-669-V5 (protein, listed as Homo sapiens, FLAG and V5 tags) MAAAAASAPQQLSDEELFSQRDSLIQPHDRKKMKKVWDRAVDFLAANESRVRTETRRIGGADFLVWRWIQPSASCDKILVIPSKVWQGQAFHLDRRNSPPNSLTPCLKIRNMFDPVMEIGDQWHLAIQEAILEKCSDNDGIVHIAVDKNSREGCVYVKCLSPEYAGKAFKALHGSWFDGKLVTVKYLRLDRYHHRFPQALTSNTPLKPSNKHMNSMSHLRLRTGLTNSQGSS", "values": [{"measurement": "pSmad3/Smad3 ratio", "setting": "Smad3 phosphorylation", "value": "decreased the pSmad3/Smad3 ratio"}, {"measurement": "overall CTF-Smad2/3 interactions versus electroporation control fibroblasts", "setting": "Smad2/3; 1 kPa p<0.0001, 25 kPa p=0.0227", "value": "significantly more overall CTF-Smad2/3 interactions"}, {"measurement": "CTF-Smad2/3 interactions, cytoplasm", "setting": "Smad2/3; 1 kPa relative to 25 kPa hydrogels, p<0.0001", "value": "significantly more Smad2/3 interactions"}, {"measurement": "CTF-Smad2/3 interactions overall", "setting": "Smad2/3; 1 kPa relative to 25 kPa hydrogels, p<0.0001, FIG. 5B", "value": "significantly more Smad2/3 interactions"}, {"measurement": "CTF-Smad2/3 interactions, nucleus", "setting": "Smad2/3; 1 kPa relative to 25 kPa hydrogels, p=0.0082", "value": "significantly more Smad2/3 interactions"}, {"measurement": "fraction of CTF-Smad2/3 interactions in the nucleus", "setting": "Smad2/3; depending on stiffness, FIG. 5B", "value": "40-55%"}, {"measurement": "TGFβ-driven increase in Smad2/3-Smad4 complexes", "setting": "Smad2/3-Smad4 complexes", "value": "significantly abrogated"}, {"measurement": "PPM1α interactions, total", "setting": "PPM1α; vs Neon Only control, p<0.0001", "value": "bound PPM1α"}, {"measurement": "PPM1α interactions, cytoplasm", "setting": "PPM1α; vs control, p=0.0081", "value": "bound PPM1α significantly above background"}, {"measurement": "PPM1α interactions, nucleus", "setting": "PPM1α; vs control, p=0.2569", "value": "only endogenous LEMD3 was found to significantly bind PPM1α in the nucleus"}]}
